Experimental data published in patent US20070202552A1 (Genentech, published 2007).
Positions count from the first letter of the chain named.

B1: Clone G37 (SX-surface), purified Fab (Fab, V domains shown)
VH: EVQLVESGGGLVQPGGSLRLSCAASGFSIWWSWIHWVRQAPGKGLEWVASISPSSGWTSYADSVKGRFTISADTSKNTAYLQMNSLRAEDTAVYYCARWWSSAMDYWGQGTLVTVSS
VL: DIQMTQSPSSLSASVGDRVTITCRASQDVNTAVAWYQQKPGKAPKLLIYSASSLYSGVPSRFSGSRSGTDFTLTISSLQPEDFATYYCQQWWWWPSTFGQGTKVEIK
B2: G35 (Fab, V domains shown)
VH: B1 VH with W30S, S52W, M104L
VL: B1 VL
B3: G36 (Fab, V domains shown)
VH: B1 VH with W100S, M104F
VL: B1 VL
B4: G40 (Fab, V domains shown)
VH: B1 VH with W100S, S102W, A103G, M104L
VL: B1 VL with W92S
B5: Clone YSGR-A-42, purified soluble Fab (Fab, V domains shown)
VH: EVQLVESGGGLVQPGGSLRLSCAASGFYISSSSIHWVRQAPGKGLEWVAYIYPSSGYTSYADSVKGRFTISADTSKNTAYLQMNSLRAEDTAVYYCARGYYYSYYSGYALDYWGQGTLVTVSS
VL: B1 VL with W91S, W92Y, W93S, W94S
notes: also called clone 42 (YSGR-A); clone 42
B6: Clone B11 (SXH3), purified soluble Fab (Fab, V domains shown)
VH: B1 VH with W30Y, W31S, W33Y, S52Y, S54Y, W57Y, M104F
VL: B1 VL with W91S, W92Y, W93Y, W94Y
notes: Tryptophan-containing clone
B7: Clone G54 (SX-surface), purified soluble Fab (Fab, V domains shown)
VH: B1 VH with W30S, W31S, W33Y, S52Y, S54Y, W57Y, W99Y, W100Y, S102Y, M104L
VL: B1 VL with W91S, W92Y, W93Y, W94Y
notes: Tyrosine-containing clone
B8: B27 (Fab, V domains shown)
VH: EVQLVESGGGLVQPGGSLRLSCAASGFSISYSSIHWVRQAPGKGLEWVASIYPYYGYTSYADSVKGRFTISADTSKNTAYLQMNSLRAEDTAVYYCARFFFFSSSFFGFDYWGQGTLVTVSS
VL: B1 VL with W91Y, W92S, W93Y, W94Y, S96Y
notes: also called SXH3-B27 Fab-phage

The binders below were run against human DR5 (construct not stated) (human) (UniProt O14763) (assay: specificity phage ELISA).
In the case of B1, the ELISA signal at 450 nm is reported as 0.21.

Each binder was assayed against human IGF-1 (human) (UniProt P05019) (assay: specificity phage ELISA).
In the case of B2, the ELISA signal at 450 nm is reported as 0.25.
B3 gave an ELISA signal at 450 nm of 0.3.
In the case of B1, the ELISA signal at 450 nm is reported as 0.32.
Binder B4 has an ELISA signal at 450 nm of 0.85.

Each binder was assayed against human VEGF (human) (UniProt P15692) (assay: specificity phage ELISA).
In the case of B2, the ELISA signal at 450 nm is reported as 0.31.
Binder B3 has an ELISA signal at 450 nm of 0.38.
B1 was tested, and the ELISA signal at 450 nm was 0.23.
B4 showed an ELISA signal at 450 nm of 0.31.

These binders were tested against human insulin (human) (UniProt P01308) (assay: specificity phage ELISA).
Binder B2 has an ELISA signal at 450 nm of 0.37.
B3 gave an ELISA signal at 450 nm of 0.29.
With B1 the ELISA signal at 450 nm was 0.45.
Work on B4 yielded an ELISA signal at 450 nm of 2.64.

These binders were tested against neutravidin (UniProt P02701) (assay: specificity phage ELISA).
For B2, the ELISA signal at 450 nm was 0.29.
B3 gave an ELISA signal at 450 nm of 0.26.
With B1 the ELISA signal at 450 nm was 0.32.
B4 gave an ELISA signal at 450 nm of 0.45.

The binders below were run against T1, human HER-2 extracellular domain (HER-2 ECD) (human, UniProt P04626 23-646) (assay: Fab-phage binding affinity).
T1 construct: range 23-646; also called erbB2; HER2 protein
For B1, the IC50 was 0.31 nM.
B5 gave an IC50 of 0.32 nM.
With B6 the IC50 was 0.85 nM.
B7 showed an IC50 of 2.44 nM.
B8 gave an IC50 of 71.7 nM.

These binders were tested against T1, human HER-2 extracellular domain (HER-2 …) (assay: competitive Fab-phage ELISA).
Binder B5 has an IC50 of 0.32 nM.

Target: T1, human HER-2 extracellular domain (HER-2 …)
Assay: competitive Fab-phage ELISA
Remark: another data set of the same source
Binder B6 has an IC50 of 0.85 nM.
B8 gave an IC50 of 71.7 nM.

Target: T1, human HER-2 extracellular domain (HER-2 …)
Assay: competitive Fab-phage ELISA
Remark: another data set of the same source
B2 gave an IC50 of 0.65 nM.
Work on B3 yielded an IC50 of 1.2 nM.
With B1 the IC50 was 0.31 nM.
Binder B4 has an IC50 of 1.8 nM.
With B7 the IC50 was 2.44 nM.

Each binder was assayed against T1, human HER-2 extracellular domain (HER-2 …) (assay: SPR (BIAcore A100), HER2 amine-coupled to the chip, soluble Fab injected, 25 C).
B5 gave a Kd of 0.57 nM, a koff of 0.0015 s⁻¹ and a kon of 2.7e+06 M⁻¹ s⁻¹.
For B6, the Kd was 0.89 nM, the koff was 0.0017 s⁻¹ and the kon was 1.9e+06 M⁻¹ s⁻¹.
With B7 the Kd was 11 nM, the koff was 0.0022 s⁻¹ and the kon was 200000 M⁻¹ s⁻¹.
